The values below come from article PMC8162780.

Substrate in data set [1]: CCOCC(O)CO
Kind of data set: purified protein. The data set is classed as biochemical, Geobacillus stearothermophilus. Particulars: 1 mM NAD+, 100 mM sodium phosphate pH 7, 30 °C, free enzyme.

Substrate in data set [2]: OCC(O)CO
Kind of data set: purified protein. The data set is classed as biochemical, Geobacillus stearothermophilus. Particulars: 1 mM NAD+, 100 mM sodium phosphate pH 7, 30 °C, free enzyme.

Substrate in data set [3]: OCC(O)COCC(F)(F)F
Kind of data set: purified protein. In kind it is biochemical, Geobacillus stearothermophilus. Particulars: 1 mM NAD+, 100 mM sodium phosphate pH 7, 30 °C, free enzyme.

Substrate in data set [4]: OCC(O)COc1ccccc1
Description: purified protein. The data set is classed as biochemical, Geobacillus stearothermophilus. Particulars: 1 mM NAD+, 100 mM sodium phosphate pH 7, 30 °C, free enzyme.

Substrate in data set [5]: OCC(O)COc1ccccc1
Description: purified protein, by the assay type. Particulars: 30.0 °C.

B1: BsGlyDH (GlyDH from Bacillus stearothermophilus) (Geobacillus stearothermophilus) (protein)
chain: MAAERVFISPAKYVQGKNVITKIANYLEGIGNKTVVIADEIVWKIAGHTIVNELKKGNIAAEEVVFSGEASRNEVERIANIARKAEAAIVIGVGGGKTLDTAKAVADELDAYIVIVPTAASTDAPTSALSVIYSDDGVFESYRFYKKNPDLVLVDTKIIANAPPRLLASGIADALATWVEARSVIKSGGKTMAGGIPTIAAEAIAEKCEQTLFKYGKLAYESVKAKVVTPALEAVVEANTLLSGLGFESGGLAAAHAIHNGFTALEGEIHHLTHGEKVAFGTLVQLALEEHSQQEIERYIELYLSLDLPVTLEDIKLKDASREDILKVAKAATAEGETIHNAFNVTADDVADAIFAADQYAKAYKEKHRK
By Km is commonly meant the concentration of substrate that gives half-maximal velocity. One may read the Vmax as the rate approached at saturating substrate. Usually kcat stands for the maximal rate divided by the concentration of active sites. For orientation: kcat/Km means the turnover number divided by the Michaelis constant. Take B1: the Km worked out at 13.4 ± 0.4 mM in the data set “purified protein [1]”; 50 ± 3 mM in the data set “purified protein [2]”; 78 ± 8 mM in the data set “purified protein [3]”; 7 ± 2 mM in the data set “purified protein [4]”; 6.6 mM in data set [5]. Moreover, the Vmax was 0.036 µmol/min/mg in “purified protein [1]”, 1.4 µmol/min/mg in the data set “purified protein [2]”, 0.06 µmol/min/mg in the data set “purified protein [3]” and 0.14 µmol/min/mg in “purified protein [4]”. For the same protein, the kcat in the data set “purified protein [1]” stood at 0.19 ± 0.003 s⁻¹; in the data set “purified protein [2]” it was 7.4 ± 0.2 s⁻¹; in the data set “purified protein [3]”, 0.32 ± 0.01 s⁻¹; in the data set “purified protein [4]”, 0.7 ± 0.1 s⁻¹. Further, the kcat/Km in the data set “purified protein [1]” is 14 M⁻¹ s⁻¹; in “purified protein [2]”, 148 M⁻¹ s⁻¹; in “purified protein [3]” it was 4 M⁻¹ s⁻¹; in “purified protein [4]”, 112 M⁻¹ s⁻¹.
